Values quoted from earlier work as cited in PMC4026351.
Read-outs that look alike come from different tables or passages of the source.

Assays:
BtuB (Escherichia coli) [1] = target: BtuB (Escherichia coli) (UniProt P06129)
BtuB (Escherichia coli) [2] = target: BtuB (Escherichia coli) (UniProt P06129); remark: listed apart in the source

Sequence of UniProt P06129 (P06129 21-614): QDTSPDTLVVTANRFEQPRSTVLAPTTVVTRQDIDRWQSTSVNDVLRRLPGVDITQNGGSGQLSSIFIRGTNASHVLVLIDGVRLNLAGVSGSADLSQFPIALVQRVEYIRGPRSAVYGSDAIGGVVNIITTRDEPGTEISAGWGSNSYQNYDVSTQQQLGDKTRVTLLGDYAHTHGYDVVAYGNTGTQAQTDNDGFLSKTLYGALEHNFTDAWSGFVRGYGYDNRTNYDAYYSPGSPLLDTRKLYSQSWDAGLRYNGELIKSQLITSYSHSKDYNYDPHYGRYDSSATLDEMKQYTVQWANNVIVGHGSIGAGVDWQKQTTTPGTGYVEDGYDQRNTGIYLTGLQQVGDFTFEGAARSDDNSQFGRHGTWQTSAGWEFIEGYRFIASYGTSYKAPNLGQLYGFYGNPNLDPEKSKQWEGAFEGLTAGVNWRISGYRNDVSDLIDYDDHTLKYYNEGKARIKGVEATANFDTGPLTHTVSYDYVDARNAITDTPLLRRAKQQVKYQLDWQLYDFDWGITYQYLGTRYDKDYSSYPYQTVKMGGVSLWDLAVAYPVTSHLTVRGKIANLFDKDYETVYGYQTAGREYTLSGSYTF

Substance | Kd (BtuB (Escherichia coli) [1]) | Kd (BtuB (Escherichia coli) [2])
colicin E3 R-domain (from UniProt P00646) | 1.5 nM | 
colicin E2 R-domain (from UniProt P04419) |  | 1.5 nM
